Source: US20220281936A1

Target: IL12 receptor on pre-activated mouse CD8+ T cells (mouse) (UniProt Q60837)
Test: cell-based or functional assay

Binder | EC50 of STAT4 phosphorylation in pre-activated mouse CD8+ T cells (flow cytometry) | EC50 of STAT4 phosphorylation in pre-activated mouse CD8+ T cells, fold against unmodified IL12 | fold decrease in STAT4 phosphorylation in pre-activated mouse CD8+ T cells, noncleaved construct against IL12 (FIG. 3C)
Mouse IL12 (unmodified) (ligand) chain 1: RVIPVSGPARCLSQSRNLLKTTDDMVKTAREKLKHYSCTAEDIDHEDITRDQTSTLKTCLPLELHKNESCLATRETSSTTRGSCLPPQKTSLMMTLCLGSIYEDLKMYQTEFQAINAALQNHNHQQIILDKGMLVAIDELMQSLNHNGETLRQKPPVGEADPYRVKMKLCILLHAFSTRVVTINRVMGYLSSA chain 2: MWELEKDVYVVEVDWTPDAPGETVNLTCDTPEEDDITWTSDQRHGVIGSGKTLTITVKEFLDAGQYTCHKGGETLSHSHLLLHKKENGIWSTEILKNFKNKTFLKCEAPNYSGRFTCSWLVQRNMDLKFNIKSSSSSPDSRAVTCGMASLSAEKVTLDQRDYEKYSVSCQEDVTCPTAEETLPIELALEARQQNKYENYSTSFFIRDIIKPDPPKNLQMKPLKNSQVEVSWEYPDSWSTPHSYFSLKFFVRIQRKKEKMKETEEGCNQKGAFLVEKTSTEVQCKGGNVCVQAQDRYYNSSCSKWACVPCRVRS | 0.0163 nM |  | 
IL12Rβ1-VP-IL12 (protein, part only; not given: IL12Rβ1 mask domains and linker, part only) chain, part: VPLSLYSRVIPVSGPARCLSQSRNLLKTTDDMVKTAREKLKHYSCTAEDIDHEDITRDQTSTLKTCLPLELHKNESCLATRETSSTTRGSCLPPQKTSLMMTLCLGSIYEDLKMYQTEFQAINAALQNHNHQQIILDKGMLVAIDELMQSLNHNGETLRQKPPVGEADPYRVKMKLCILLHAFSTRVVTINRVMGYLSSA MWELEKDVYVVEVDWTPDAPGETVNLTCDTPEEDDITWTSDQRHGVIGSGKTLTITVKEFLDAGQYTCHKGGETLSHSHLLLHKKENGIWSTEILKNFKNKTFLKCEAPNYSGRFTCSWLVQRNMDLKFNIKSSSSSPDSRAVTCGMASLSAEKVTLDQRDYEKYSVSCQEDVTCPTAEETLPIELALEARQQNKYENYSTSFFIRDIIKPDPPKNLQMKPLKNSQVEVSWEYPDSWSTPHSYFSLKFFVRIQRKKEKMKETEEGCNQKGAFLVEKTSTEVQCKGGNVCVQAQDRYYNSSCSKWACVPCRVRS |  | 80 fold | 80 fold
IL12Rβ1-LS-IL12 (protein) chain 1: QLGASGPGDGCCVEKTSFPEGASGSPLGPRNLSCYRVSKTDYECSWQYDGPEDNVSHVLWCCFVPPNHTHTGQERCRYFSSGPDRTVQFWEQDGIPVLSKVNFWVESRLGNRTMKSQKISQYLYNWTKTTPPLGHIKVSQSHRQLRMDWNVSEEAGAEVQFRRRMPTTNWTLGDCGPQVNSGSGVLGDIRGSMSESCLCPSENMAQEIQIRRRRRLSSGAPGGPWSDWSMPVCVPPEVLPQAGLLSGRSDNHGGGSGGGSRVIPVSGPARCLSQSRNLLKTTDDMVKTAREKLKHYSCTAEDIDHEDITRDQTSTLKTCLPLELHKNESCLATRETSSTTRGSCLPPQKTSLMMTLCLGSIYEDLKMYQTEFQAINAALQNHNHQQIILDKGMLVAIDELMQSLNHNGETLRQKPPVGEADPYRVKMKLCILLHAFSTRVVTINRVMGYLSSAHHHHHH chain 2: MWELEKDVYVVEVDWTPDAPGETVNLTCDTPEEDDITWTSDQRHGVIGSGKTLTITVKEFLDAGQYTCHKGGETLSHSHLLLHKKENGIWSTEILKNFKNKTFLKCEAPNYSGRFTCSWLVQRNMDLKFNIKSSSSSPDSRAVTCGMASLSAEKVTLDQRDYEKYSVSCQEDVTCPTAEETLPIELALEARQQNKYENYSTSFFIRDIIKPDPPKNLQMKPLKNSQVEVSWEYPDSWSTPHSYFSLKFFVRIQRKKEKMKETEEGCNQKGAFLVEKTSTEVQCKGGNVCVQAQDRYYNSSCSKWACVPCRVRS |  | 80 fold | 80 fold
